# Data as given in publication PMC10700433.
# Biological target: IgG4 control antibody
# Assay: BLI; Octet RED96; antibodies captured on FABG2 biosensor tips, recombinant FcRn in solution; association studied at physiological pH, dissociation at pH6
# mouse FcRn, sequence (Q61559 22-365): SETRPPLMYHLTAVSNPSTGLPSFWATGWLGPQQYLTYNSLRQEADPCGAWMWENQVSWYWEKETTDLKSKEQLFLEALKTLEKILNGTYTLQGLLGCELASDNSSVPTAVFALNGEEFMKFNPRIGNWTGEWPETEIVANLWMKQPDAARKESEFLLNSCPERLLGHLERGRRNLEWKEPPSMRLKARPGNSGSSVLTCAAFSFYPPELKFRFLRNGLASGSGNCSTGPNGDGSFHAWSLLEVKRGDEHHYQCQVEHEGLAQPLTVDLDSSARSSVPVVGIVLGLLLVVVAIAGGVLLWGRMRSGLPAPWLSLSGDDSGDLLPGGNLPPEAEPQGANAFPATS
# mouse FcγRIV, sequence (A0A0B4J1G0 21-249): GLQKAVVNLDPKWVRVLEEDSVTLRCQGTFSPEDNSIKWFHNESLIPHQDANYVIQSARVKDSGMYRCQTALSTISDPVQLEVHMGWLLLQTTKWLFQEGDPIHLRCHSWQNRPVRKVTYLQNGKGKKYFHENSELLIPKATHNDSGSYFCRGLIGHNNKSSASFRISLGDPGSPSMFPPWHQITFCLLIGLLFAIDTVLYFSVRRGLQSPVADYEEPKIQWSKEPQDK
# mouse FcγRI, sequence (P26151 25-404): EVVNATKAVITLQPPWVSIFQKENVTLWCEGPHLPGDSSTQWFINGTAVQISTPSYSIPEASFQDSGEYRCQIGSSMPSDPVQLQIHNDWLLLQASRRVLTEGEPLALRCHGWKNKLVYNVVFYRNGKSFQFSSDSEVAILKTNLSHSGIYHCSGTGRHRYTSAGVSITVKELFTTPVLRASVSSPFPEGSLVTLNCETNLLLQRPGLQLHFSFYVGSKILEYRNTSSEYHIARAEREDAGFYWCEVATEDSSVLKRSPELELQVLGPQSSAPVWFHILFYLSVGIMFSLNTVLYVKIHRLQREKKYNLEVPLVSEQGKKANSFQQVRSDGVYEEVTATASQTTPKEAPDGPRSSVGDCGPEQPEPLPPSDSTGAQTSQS
# human FcRn, sequence (P55899 24-365): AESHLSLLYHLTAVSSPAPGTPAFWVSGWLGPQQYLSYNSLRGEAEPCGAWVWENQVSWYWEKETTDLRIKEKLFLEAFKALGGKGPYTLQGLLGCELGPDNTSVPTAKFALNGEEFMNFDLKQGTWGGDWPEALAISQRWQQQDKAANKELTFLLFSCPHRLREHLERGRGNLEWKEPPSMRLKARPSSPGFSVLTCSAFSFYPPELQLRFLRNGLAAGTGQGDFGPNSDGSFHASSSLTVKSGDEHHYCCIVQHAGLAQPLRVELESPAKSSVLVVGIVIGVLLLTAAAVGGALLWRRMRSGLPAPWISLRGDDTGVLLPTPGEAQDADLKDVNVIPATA
row,Substance,Kd
1,mouse FcRn (from UniProt Q61559 22-365) (receptor),200 nM
2,human FcRn (from UniProt P55899 24-365) (receptor),600 nM

# Biological target: IgG4 control antibody
# Assay: BLI; Octet RED96; antibodies captured on FABG2 biosensor tips, recombinant Fcγ receptors in solution at suitable concentration ranges; association and dissociation at physiological pH
row,Substance,Kd
1,mouse FcγRIII (from UniProt P08508 31-261) (receptor),100 nM
2,human FcγRIIa (from UniProt P12318 34-317) (receptor),500 nM
3,mouse FcγRIIb (from UniProt P08101 30-330) (receptor),700 nM
4,human FcγRIII 176V (from UniProt P08637 17-254) (receptor),600000 nM
5,human FcγRIIb (from UniProt P31994 43-310) (receptor),600 nM
6,mouse FcγRI (from UniProt P26151 25-404) (receptor),200 nM
7,mouse FcγRIV (from UniProt A0A0B4J1G0 21-249) (receptor),2000 nM
